Assay results as given in the supplement of paper PMC7877785.
± gives the uncertainty stated by the source.

Test: self-splicing fitness, log relative to wild type (ln ratio); higher = more splicing; Tetrahymena group I intron in knt gene, E. coli kanamycin selection, DiMSum; sequences stand for … in CUCUCU…GGAGGGAAAAGUUAUCAGGCAUGCACCUGGUAGCUAGUCUUUAAACCAAUAGAUUGCAUCGGUUUAAAAGGCAAGACCGUCAAAUUGCGGGAAAGGGGUCAACAGCCGUUCAGUACCAAGUCUCAGGGGAAACUUUGAGAUGGCCUUGCAAAGGGUAUGGUAAUAAGCUGACGGACAUGGUCCUAACCACGCAGCCAAGUCCUAAGUCAACAGAUCUUCUGUUGAUAUGGAUGCAGUUCACAGACUAAAUGUCGGUCGGGGAAGAUGUAUUCUUCUCAUAAGAUAUAGUCGGACCUCUCCUUAAUGGGAGCUAGCGGAUGAAGUGAUGCAACACUGGAGCCGCUGGGAACUAAUUUGUAUGCGAAAGUAUAUUGAUUAGUUUUGGAGUACUCGUGGUCG
Procedure, shortened: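 Pooled colonies went to amplicon sequencing on an Illumina HiSeq 2500 after six replicate transformations. The plates were LB agar with 100 μg/mL carbenicillin, 50 μM IPTG and 0.2% rhamnose, with or without 25 μg/mL kanamycin, incubated overnight at 37°C or 30°C. The E. coli BL21(DE3) library had all eight P1ex-region intron nucleotides randomised, the intron placed in the knt kanamycin-resistance gene on pET-22b(+). DiMSum fitness is the error-weighted combination of replicate fold changes, kanamycin against none, normalised to wild type.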

UCAAAGCAAUAUUACGACUG
self-splicing fitness (ln) (30 °C): -0.4 ± 0.086 | self-splicing fitness (ln) (37 °C): -0.859 ± 0.11

GCCGAGCAAUAUUACGCAAA
self-splicing fitness (ln) (37 °C): -1.05 ± 0.34

AAGAAGCAAUAUUACGUAAU
self-splicing fitness (ln) (30 °C): -1.89 ± 0.097 | self-splicing fitness (ln) (37 °C): -1.2 ± 0.12

UGUUAGCAAUAUUACGCCUU
self-splicing fitness (ln) (30 °C): -0.953 ± 0.37 | self-splicing fitness (ln) (37 °C): -1.4 ± 0.33

UACAAGCAAUAUUACGUAUA
self-splicing fitness (ln) (30 °C): -2.22 ± 0.13 | self-splicing fitness (ln) (37 °C): -0.891 ± 0.12

GGUCAGCAAUAUUACGAUCG
self-splicing fitness (ln) (30 °C): 0.0558 ± 0.12 | self-splicing fitness (ln) (37 °C): 0.097 ± 0.16

CCCCAGCAAUAUUACGAGGU
self-splicing fitness (ln) (30 °C): -3.6 ± 0.12 | self-splicing fitness (ln) (37 °C): -2.23 ± 0.12

AGUGAGCAAUAUUACGAGUA
self-splicing fitness (ln) (30 °C): -3.6 ± 0.44 | self-splicing fitness (ln) (37 °C): -2.18 ± 0.32

GGCGAGCAAUAUUACGGGAG
self-splicing fitness (ln) (30 °C): -3.99 ± 0.34 | self-splicing fitness (ln) (37 °C): -1.33 ± 0.23

UUUUAGCAAUAUUACGUCCG
self-splicing fitness (ln) (30 °C): -2.37 ± 0.34 | self-splicing fitness (ln) (37 °C): 0.963 ± 0.33

UCCUAGCAAUAUUACGGGCU
self-splicing fitness (ln) (30 °C): -2.12 ± 0.1 | self-splicing fitness (ln) (37 °C): -1.74 ± 0.13

UUGCAGCAAUAUUACGGUCU
self-splicing fitness (ln) (30 °C): -2.05 ± 0.092 | self-splicing fitness (ln) (37 °C): -1.26 ± 0.092

CCACAGCAAUAUUACGAUGG
self-splicing fitness (ln) (30 °C): -4.02 ± 0.14 | self-splicing fitness (ln) (37 °C): -2.5 ± 0.13

GGGCAGCAAUAUUACGUGUA
self-splicing fitness (ln) (30 °C): -2.19 ± 0.15 | self-splicing fitness (ln) (37 °C): -0.515 ± 0.12

CCCCAGCAAUAUUACGCGAU
self-splicing fitness (ln) (30 °C): -4.32 ± 0.25 | self-splicing fitness (ln) (37 °C): -2.36 ± 0.28

UUCCAGCAAUAUUACGGAAU
self-splicing fitness (ln) (30 °C): -3.81 ± 0.26 | self-splicing fitness (ln) (37 °C): -2.77 ± 0.28

CUGGAGCAAUAUUACGCGAC
self-splicing fitness (ln) (30 °C): -0.944 ± 0.27 | self-splicing fitness (ln) (37 °C): -1.84 ± 0.36

GCGAAGCAAUAUUACGAGAU
self-splicing fitness (ln) (30 °C): -2.89 ± 0.2 | self-splicing fitness (ln) (37 °C): -1.86 ± 0.22

UCCUAGCAAUAUUACGAGCU
self-splicing fitness (ln) (30 °C): -3.57 ± 0.37 | self-splicing fitness (ln) (37 °C): -1.99 ± 0.38

CUGUAGCAAUAUUACGAGUC
self-splicing fitness (ln) (37 °C): -2.05 ± 0.31

UUCAAGCAAUAUUACGCUAU
self-splicing fitness (ln) (30 °C): -2.4 ± 0.15 | self-splicing fitness (ln) (37 °C): -1.63 ± 0.16

CCAGAGCAAUAUUACGCUGU
self-splicing fitness (ln) (30 °C): -3.95 ± 0.44

CCUCAGCAAUAUUACGGUGG
self-splicing fitness (ln) (30 °C): -4.11 ± 0.16 | self-splicing fitness (ln) (37 °C): -2.41 ± 0.16

AAUAAGCAAUAUUACGGCUG
self-splicing fitness (ln) (30 °C): -0.2 ± 0.085 | self-splicing fitness (ln) (37 °C): 0.42 ± 0.1

UGCAAGCAAUAUUACGGUGG
self-splicing fitness (ln) (30 °C): -2.3 ± 0.074 | self-splicing fitness (ln) (37 °C): -1.21 ± 0.085

GCCUAGCAAUAUUACGGAAC
self-splicing fitness (ln) (30 °C): -0.183 ± 0.091 | self-splicing fitness (ln) (37 °C): 0.0968 ± 0.16

AUAAAGCAAUAUUACGUGCA
self-splicing fitness (ln) (30 °C): -0.0876 ± 0.067 | self-splicing fitness (ln) (37 °C): 0.348 ± 0.093

UGUGAGCAAUAUUACGAUCU
self-splicing fitness (ln) (30 °C): -1.57 ± 0.15 | self-splicing fitness (ln) (37 °C): -0.175 ± 0.14

GUGAAGCAAUAUUACGACCC
self-splicing fitness (ln) (30 °C): -1.04 ± 0.43 | self-splicing fitness (ln) (37 °C): 0.469 ± 0.33

UGUGAGCAAUAUUACGGCGC
self-splicing fitness (ln) (30 °C): -1.23 ± 0.33

AAGGAGCAAUAUUACGAUUG
self-splicing fitness (ln) (30 °C): -3.8 ± 0.32 | self-splicing fitness (ln) (37 °C): -0.948 ± 0.15

UCUUAGCAAUAUUACGUGUG
self-splicing fitness (ln) (30 °C): -2.13 ± 0.13 | self-splicing fitness (ln) (37 °C): -0.484 ± 0.099

CGGGAGCAAUAUUACGGGCA
self-splicing fitness (ln) (37 °C): -1.14 ± 0.42

AAACAGCAAUAUUACGACGA
self-splicing fitness (ln) (30 °C): -1.32 ± 0.096 | self-splicing fitness (ln) (37 °C): 0.0122 ± 0.099

AACCAGCAAUAUUACGUGCA
self-splicing fitness (ln) (30 °C): -0.671 ± 0.055 | self-splicing fitness (ln) (37 °C): -0.0717 ± 0.072

ACUCAGCAAUAUUACGGUAC
self-splicing fitness (ln) (30 °C): -2.63 ± 0.13 | self-splicing fitness (ln) (37 °C): -3.01 ± 0.21

AUAAAGCAAUAUUACGCCCG
self-splicing fitness (ln) (30 °C): -1.01 ± 0.14 | self-splicing fitness (ln) (37 °C): -0.313 ± 0.16

AAAUAGCAAUAUUACGCGCU
self-splicing fitness (ln) (30 °C): -0.381 ± 0.15 | self-splicing fitness (ln) (37 °C): -0.606 ± 0.19

CAAAAGCAAUAUUACGUUUU
self-splicing fitness (ln) (30 °C): -3.57 ± 0.12 | self-splicing fitness (ln) (37 °C): -2.79 ± 0.16
